Experimental findings from article PMC6779109, “The Glutamate Receptor-Like Protein GLR3.7 Interacts With 14-3-3ω and Participates in Salt Stress Response in Arabidopsis thaliana” (Frontiers in Plant Science, 2019) are described below.

The target in this test is T1, 6His-14-3-3ω recombinant protein (Arabidopsis thaliana, UniProt Q01525 1-259).
T1 construct: 14-3-3ω (GF14/omega) of Arabidopsis thaliana; also called At14-3-3ω; GF14/omega; source: E. coli, purified (Ni-NTA)
T1 sequence (looked up): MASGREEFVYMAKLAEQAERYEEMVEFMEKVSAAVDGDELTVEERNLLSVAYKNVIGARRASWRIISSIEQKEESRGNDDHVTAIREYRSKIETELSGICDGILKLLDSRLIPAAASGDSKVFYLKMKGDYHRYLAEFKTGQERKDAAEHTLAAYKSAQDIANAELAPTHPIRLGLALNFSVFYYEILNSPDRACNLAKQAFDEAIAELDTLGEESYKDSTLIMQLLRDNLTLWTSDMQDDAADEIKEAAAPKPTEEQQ
The test is described as follows: quartz crystal microbalance; GST fusion peptide coated on the sensor to saturation, 6His-14-3-3ω injected into PBS; AFFINIX QN μ, Kd by AQUA software. As to conditions: both partners purified.

The Kd is the free concentration of one partner at which half of the binding sites on the other are occupied at equilibrium, for simple one-to-one binding.

Where no end group is shown, it is not given here.

B1: Phosphorylated GST-GLR3.7 P0 recombinant fusion peptide (peptide)
chain: RYRRMERTSSMPRA
modifications: also: phosphorylated, site not given here, fused to GST
notes: C-terminal fragment of AtGLR3.7 holding Thr-858, Ser-859 and Ser-860; also called G-P0-phosphorylated fusion peptide; phosphorylated G-GLR3.7 P0; not shown: RFP (from the NRV vector)
As for B1, the dissociation constant (Kd) came to 2.31 nM.

B2: GST-GLR3.7 P0 recombinant fusion peptide (nonphosphorylated) (peptide)
chain: RYRRMERTSSMPRA
modifications: also: GST fusion
notes: C-terminal fragment of AtGLR3.7 holding Thr-858, Ser-859 and Ser-860; Cloned between AscI and NotI of the NRV vector (GST, RFP, Strep-tags; Curran et al., 2011) with the amino acids APG after the restriction site; fusion protein about 55 kD; also called G-P0; G-GLR3.7 P0; not shown: RFP (from the NRV vector)
On to B2, for which the Kd turned out to be 1770 nM.
